# Assay results as given in patent US20220249628.
# B1: recombinant ADAMTS13 (A Disintegrin And Metalloproteinase with Thrombospondin type 1 motif, member-13) (protein)
# chain: AAGGILHLELLVAVGPDVFQAHQEDTERYVLTNLNIGAELLRDPSLGAQFRVHLVKMVILTEPEGAPNITANLTSSLLSVCGWSQTINPEDDTDPGHADLVLYITRFDLELPDGNRQVRGVTQLGGACSPTWSCLITEDTGFDLGVTIAHEIGHSFGLEHDGAPGSGCGPSGHVMASDGAAPRAGLAWSPCSRRQLLSLLSAGRARCVWDPPRPQPGSAGHPPDAQPGLYYSANEQCRVAFGPKAVACTFAREHLDMCQALSCHTDPLDQSSCSRLLVPLLDGTECGVEKWCSKGRCRSLVELTPIAAVHGRWSSWGPRSPCSRSCGGGVVTRRRQCNNPRPAFGGRACVGADLQAEMCNTQACEKTQLEFMSQQCARTDGQPLRSSPGGASFYHWGAAVPHSQGDALCRHMCRAIGESFIMKRGDSFLDGTRCMPSGPREDGTLSLCVSGSCRTFGCDGRMDSQQVWDRCQVCGGDNSTCSPRKGSFTAGRAREYVTFLTVTPNLTSVYIANHRPLFTHLAVRIGGRYVVAGKMSISPNTTYPSLLEDGRVEYRVALTEDRLPRLEEIRIWGPLQEDADIQVYRRYGEEYGNLTRPDITFTYFQPKPRQAWVWAAVRGPCSVSCGAGLRWVNYSCLDQARKELVETVQCQGSQQPPAWPEACVLEPCPPYWAVGDFGPCSASCGGGLRERPVRCVEAQGSLLKTLPPARCRAGAQQPAVALETCNPQPCPARWEVSEPSSCTSAGGAGLALENETCVPGADGLEAPVTEGPGSVDEKLPAPEPCVGMSCPPGWGHLDATSAGEKAPSPWGSIRTGAQAAHVWTPAAGSCSVSCGRGLMELRFLCMDSALRVPVQEELCGLASKPGSRREVCQAVPCPARWQYKLAACSVSCGRGVVRRILYCARAHGEDDGEEILLDTQCQGLPRPEPQEACSLEPCPPRWKVMSLGPCSASCGLGTARRSVACVQLDQGQDVEVDEAACAALVRPEASVPCLIADCTYRWHVGTWMECSVSCGDGIQRRRDTCLGPQAQAPVPADFCQHLPKPVTVRGCWAGPCVGQGTPSLVPHEEAAAPGRTTATPAGASLEWSQARGLLFSPAPQPRRLLPGPQENSVQSSACGRQHLEPTGTIDMRGPGQADCAVAIGRPLGEVVTLRVLESSLNCSAGDMLLLWGRLTWRKMCRKLLDMTFSSKTNTLVVRQRCGRPGGGVLLRYGSQLAPETFYRECDMQLFGPWGEIVSPSLSPATSNAGGCRLFINVAPHARIAIHALATNMGAGTEGANASYILIRDTHSLRTTAFHGQQVLYWESESSQAEMEFSEGFLKAQASLRGQYWTLQSWVPEMQDPQSWKGKEGT
# Molecular target: full length recombinant von Willebrand factor, P04275
protein,measurement,value
B1,"176 kDa dimeric VWF cleavage fragment (VWF immunoblot, vortex-based assay, no hemoglobin)","Control reactions with 0.25 U/mL, 0.5 U/mL, and 1 U/mL rADAMTS13 in absence of hemoglobin showed a dose-dependent increase of the 176 kDa dimeric VWF cleavage fragment"
same,"ADAMTS13-mediated VWF cleavage in the presence of hemoglobin (176 kDa fragment, densitometry)",rADAMTS13 has a dose-dependent potency to overcome the inhibitory effect of hemoglobin on VWF cleavage
same,"cleavage of rVWF after pre-incubation of hemoglobin and rVWF (176 kDa fragment, densitometry)",rADAMTS13 supplemented after a pre-incubation time of hemoglobin and rVWF was capable to cleave VWF
